Test [1] has as its target T1, NLpoly11S.
T1 construct: Non-luminescent polypeptide (engineered large fragment of NanoLuc); Used as E. coli clarified lysate or as purified protein; also called 11S (12 - A51T); LSP 11S
T1 chain: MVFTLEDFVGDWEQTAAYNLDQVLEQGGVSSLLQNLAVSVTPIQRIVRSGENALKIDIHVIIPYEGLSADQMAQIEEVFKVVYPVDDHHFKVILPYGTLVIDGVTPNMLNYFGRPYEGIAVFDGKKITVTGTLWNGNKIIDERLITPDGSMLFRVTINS
The experiment in a line: luminescence complementation titration on purified NLPoly11S, 1 site specific binding fit.

Test [2] has as its target T1, NLpoly11S. The experiment in a line: luminescence complementation titration, one-site specific binding fit.
Test [3] has as its target T1, NLpoly11S. The experiment in a line: luminescence of purified NLpoly11S in NanoGlo with peptide.
Test [4] concerns the target T1, NLpoly11S. As to the kind of experiment: luminescence complementation titration at several furimazine concentrations, 1-site fit.
For test [5], the target named is T2, NLpoly WT.
T2 construct: also called WT NLpoly
T2 chain: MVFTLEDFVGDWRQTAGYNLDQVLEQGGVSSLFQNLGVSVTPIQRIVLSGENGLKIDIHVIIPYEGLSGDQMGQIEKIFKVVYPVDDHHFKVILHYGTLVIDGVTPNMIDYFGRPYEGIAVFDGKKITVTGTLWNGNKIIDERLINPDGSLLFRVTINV
The experiment in a line: luminescence complementation titration (E. coli lysate NLpoly, synthetic NLpep), one site-specific binding fit.

Test [6] concerns the target T2, NLpoly WT. The experiment in a line: BRET wavelength scan, NLpoly WT lysate + peptide.
Test [7] concerns the target T1, NLpoly11S. The experiment in a line: spectral scan of luminescence, purified NLpoly11S + peptide.

Starred links: 1 amine or outer side, 2 acyl side, 3 side chain; linkers in the order of their positions; H or OH if unused. No end group written: not given here. NH(CH2)3(OCH2CH2)2O(CH2)3NH = C(CN[*:1])COCCOCCOCCCN[*:2]

As a reminder, the Kd is the constant that tells how readily two partners part at equilibrium.

B1: NLpep114 (peptide)
peptide: VTGYRLFEEIL
notes: Synthetic; also called NLpep114 (w/o Met)
Turning to B1, the binding result in the test with NLpoly11S [1] is given as “binds”.

B2: array2.52 (peptide)
peptide: Ac-VTGYRLFEEIL-NH2
Consider B2, for which the affinity with NLpoly11S [2], expressed as Kd, was 104 µM.

B3: GWALFKK (peptide)
peptide: GWALFKK
notes: Dark peptide; also called NLpep162 (w/o Met)
For the molecule B3, the binding result with NLpoly11S [3] is on record as “binds”.

B4: NLpep1 (peptide)
peptide: GVTGWRLCERILA
notes: also called NLpepWT; NLPep1 (WT)
Turning to B4, the binding result with NLpoly11S [4] is “binds”. In addition, in the test with NLpoly WT [5], the Kd was about 10 µM.

B5: PBI-4877 (peptide)
peptide: GVTGWRLCERILA-{NH(CH2)3(OCH2CH2)2O(CH2)3NH-6‑tetramethylrhodamine}
notes: also called NLpep1-TMR; NLPep1-fluorophore
As to B5, the binding result with NLpoly WT [6] and in the test with NLpoly11S [7] was “binds” in each case.

B6: Dabcyl-GWALFKK (peptide)
peptide: GWALFKK
modifications: not fully specified (N-terminus); printed as Dabcyl-GWALFKK
notes: Quencher peptide
Regarding B6, in the test with NLpoly11S [3], the binding result was “binds”.

Values taken from patent publication US20200292534A1 (PROMEGA, published 2020).
